Results published in patent publication US20200308575A1 (TWIST BIOSCIENCE, published 2020).
Substitutions are numbered along the chain they refer to.

B1: PD1-7 (antibody, V domains shown)
VH: QVQLVQSGAEVKKPGASVKVSCKASGYTFTHYGITWVRQAPGQGLEWMGWISAYSGSTNYAQKLQGRVTMTTDTSTSTAYMELRSLRSDDTAVYYCARDADYSIGSGYWGQGTLVTVSS
VL: SYELMQPPSVSVSPGQTARITCSGDALPNQYAFWYQQKPGQAPVLVIYKDNERPSGIPERFSGSSSGTTVTLTISGVQAEDEADYYCQSADNSITYRVFGGGTKLTVL
notes: IgG in the assay
B2: PD1-1 (antibody, V domains shown)
VH: B1 VH with T30S, T35S, I51V, S57N, N59R, D101T, I104S
VL: B1 VL with N29T, F33Y, K49Q
notes: IgG in the assay
B3: PD1-8 (antibody, V domains shown)
VH: B1 VH with T30S, T35S, A53P, S57N, N59K, A100N, I104S
VL: B1 VL with A26E, N29K, F33Y, P54A
notes: IgG in the assay
B4: PD1-2 (antibody, V domains shown)
VH: B1 VH with T28S, T30S, H31N, T35S, I51V, S57N, S103A, I104S
VL: B1 VL with A26E, F33Y, N51T, E52Q
notes: IgG in the assay
B5: PD1-48 (antibody, V domains shown)
VH: EVQLVESGGGLVQPGRSLRLSCAASGFTFDDYALHWVRQAPGKDLEWVSGISWNSGSQGYADSVKGRFTISRDNAKNSLYLQMNSLRAEDTALYYCVREKGPGLTGSTADYYGLDAWGQGTMVTVSS
B6: PD1-22 (antibody, V domains shown)
VH: B5 VH with L34M, S55G, Q58M, D62A
B7: PD1-38 (antibody, V domains shown)
VH: B5 VH with S55G, Q58M
B8: PD1-24 (antibody, V domains shown)
VH: B5 VH with L34M, Q58M, D62A
B9: PD1-21 (antibody, V domains shown)
VH: B5 VH with L34M, S55G, Q58M, D62A, A116V
B10: PD1-20 (antibody, V domains shown)
VH: B5 VH with L34M, S55G, Q58M, A116V
B11: PD1-49 (antibody, V domains shown)
VH: B5 VH with L34F
B12: PD1-44 (antibody, V domains shown)
VH: B5 VH with Q58Y
B13: PD1-50 (antibody, V domains shown)
VH: B5 VH with L34F, S55A
B14: PD1-39 (antibody, V domains shown)
VH: B5 VH with S55G, Q58Y
B15: PD1-32 (antibody, V domains shown)
VH: B5 VH with L34M, Q58M
B16: PD1-45 (antibody, V domains shown)
VH: B5 VH with S55A
B17: PD1-23 (antibody, V domains shown)
VH: B1 VH with T28P, H31S, T35S, S55N, S57N, A100V, I104S
VL: B1 VL with N29K, F33Y, N51T
notes: IgG in the assay
B18: PD1-11 (antibody, V domains shown)
VH: B1 VH with T30S, H31N, I34F, T35S, A53P, S57N, N59K
VL: B1 VL with N29R, F33H, E52V, N92T, I94T, T95I
notes: IgG in the assay
B19: PD1-30 (antibody, V domains shown)
VH: B1 VH with T30N, H31N, I34V, T35S, I51V, S57N, S103A, I104S
VL: B1 VL with P28S, A32T, F33Y, N51K, E52K
notes: IgG in the assay
B20: PD1-43 (antibody, V domains shown)
VH: B1 VH with T30S, H31N, T35S, S57N, N59K, S103A, I104S
VL: B1 VL with N29R, F33H, N92T, I94T, T95I
notes: IgG in the assay
B21: PD1-17 (antibody, V domains shown)
VH: B1 VH with T30S, H31K, T35S, S57H, N59D, A100F, I104S
VL: B1 VL with N29E, F33Y, N51T, P54S
notes: IgG in the assay
B22: PD1-42 (antibody, V domains shown)
VH: B1 VH with T30N, H31N, Y32F, T35S, S55N, S57N, N59D, A100M, I104S
VL: B1 VL with P28S, F33Y, N51T, R53T
notes: IgG in the assay
B23: PD1-12 (antibody, V domains shown)
VH: B1 VH with T30N, H31T, I34V, T35S, S57N, N59R, A100F, I104S
VL: B1 VL with N29K, F33Y, N51T
notes: IgG in the assay
B24: PD1-36 (antibody, V domains shown)
VH: B1 VH with T30S, H31S, I34V, T35S, D101V, I104S
VL: B1 VL with F33H, N51T, E52Q
notes: IgG in the assay
B25: PD1-14 (antibody, V domains shown)
VH: B1 VH with T28P, H31N, T35S, I51T, S57N, A100F, I104S
VL: B1 VL with N29K, F33Y, N51T, P54R
notes: IgG in the assay
B26: PD1-4 (antibody, V domains shown)
VH: B1 VH with T30S, H31T, Y32S, T35S, S55N, S57N, A100F, I104S
VL: B1 VL with N29K, F33Y, N51T
notes: IgG in the assay
B27: PD1-27 (antibody, V domains shown)
VH: B1 VH with T28P, H31N, S55N, S57N, A100W, I104S
VL: B1 VL with A26I, N29K, F33Y, P54A
notes: IgG in the assay
B28: PD1-25 (antibody, V domains shown)
VH: B1 VH with T28S, H31R, T35S, A53P, S57N, N59K, S103G, I104S
VL: B1 VL with N29D, F33Y, N51Y
notes: IgG in the assay
B29: PD1-10 (antibody, V domains shown)
VH: B1 VH with T28R, H31S, T35S, S55N, S57N, S103A, I104S
VL: B1 VL with N29K, F33Y, N51T
notes: IgG in the assay
B30: PD1-18 (antibody, V domains shown)
VH: B1 VH with T30N, H31N, T35S, S57H, N59D, A100W, I104S
VL: B1 VL with P28S, A32G, F33Y, P54A
notes: IgG in the assay

Target: T1, program cell death protein 1 (PD-1) (UniProt Q15116 25-167, limits assumed)
Assay: cell-based or functional assay

T1 sequence (Q15116 25-167 limits assumed): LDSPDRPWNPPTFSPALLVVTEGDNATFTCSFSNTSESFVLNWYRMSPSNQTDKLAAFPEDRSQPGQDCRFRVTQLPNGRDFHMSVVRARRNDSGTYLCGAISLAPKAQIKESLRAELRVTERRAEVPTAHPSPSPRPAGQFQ

Row | Binder | Bmax (RU) (PD-1/PD-L1 blockade assay) | IC50 (PD-1/PD-L1 blockade assay) [nM]
1 | B1 | 642 | 0.896
2 | B2 | 693 | 0.434
3 | B3 | 436 | 1.97
4 | B4 | 661 | 0.848

Target: T1, program cell death protein 1 (PD-1)
Assay: SPR (Carterra LSA), IgG, monovalent affinity

Row | Binder | Kd [nM]
5 | B2 | 4.52

Target: T1, program cell death protein 1 (PD-1)
Assay: SPR (Carterra LSA), IgG, monovalent affinity
Remark: another data set of the same source

Row | Binder | Kd [nM]
6 | B5 | 64.3
7 | B6 | 132
8 | B7 | 204
9 | B8 | 190
10 | B9 | 92
11 | B10 | 109
12 | B11 | 201
13 | B12 | 226
14 | B13 | 87.5
15 | B14 | 240
16 | B15 | 92.2
17 | B16 | 243
18 | B17 | 69.2
19 | B18 | 48.1
20 | B19 | 68.8
21 | B20 | 54.4
22 | B1 | 10.5
23 | B2 | 4.5
24 | B21 | 60.1
25 | B22 | 53.6
26 | B23 | 53.5
27 | B24 | 84.9
28 | B25 | 45.9
29 | B26 | 31.4
30 | B27 | 88.6
31 | B3 | 78.1
32 | B4 | 9.8
33 | B28 | 76
34 | B29 | 47.4
35 | B30 | 68.4
